Data from the supplement of paper PMC10567573.
± gives the standard deviation.

Experiment: protein stability index of a GFP-peptide fusion (GPS, HEK-293T) (PSI 1-6); higher = more stable
[1] = treatment: DMSO, c terminus: a fixed tail appended
[2] = treatment: MLN4924 1 uM, 8 h, c terminus: a fixed tail appended
[3] = treatment: DMSO, c terminus: native
[4] = treatment: MLN4924 1 uM, 8 h, c terminus: native
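Note: 24-mer peptide tiles fused after GFP, lentivirally expressed, FACS-sorted into six equal bins by GFP/DsRed ratio, decoded by Illumina sequencing, PSI is the read-weighted mean bin number.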

Sequence	protein stability index [1]	protein stability index [2]	protein stability index [3]	protein stability index [4]
LVFQRRMDGQTDFWRDWEDYAHGF [TNXB]	2.64 ± 0.61	1.93 ± 0.51		
MDVAISNNKKWILSASKDRTMRLW [WDR88]	2.38 ± 0.19	2.35 ± 0.32		
EDMEASDYELEDETRPAKRITITE [WEE1]	5.42 ± 0.25	5.36 ± 0.17		
QDMSQVSGKESPPVSDTPDEGDEP [IKZF1]	5.38 ± 0.41	5.62 ± 0.32		
KYKSFNRTAMPYGGYEKASKRMTF [MYOZ1]	2.34 ± 0.31	2.57 ± 0.24		
EQHVHNEKSVLKEVSHPFLIRLFW [PRKX]	2.25 ± 0.25	2.26 ± 0.081		
YSGPPSPHGTLRVCTISSTGPLQP [PKD2L1]	2.65 ± 0.57	2.83 ± 0.3		
SADVNARDKNWQTPLHVAAANKAV [ANKRD44]	4.18 ± 0.31	4.07 ± 0.18		
DILMEFGHLFPPPTPIFAGGANDR [WSB1]	2.41 ± 0.46	2.51 ± 0.45		
PTSGIVGALMEVMQKRSKAIHSSD [WASL]	3.14 ± 0.14	3.39 ± 0.19		
SCVIPLRHGGLSLVQTTDFFYPLV [SEPHS2]	2.42 ± 0.34	2.31 ± 0.45		
DCGPSRADRCSPKEDQAWDGASQD [FBXO34]	5.37 ± 0.24	5.25 ± 0.28		
AQLYEDFLFPIDISLVKREHDFLD [DLC1]	2.52 ± 0.12	2.7 ± 0.28		
TLEGHQRAIMAHMTVEEIYKDRQK [FLOT1]	4.52 ± 0.13	4.7 ± 0.19		
AHVGMELQLKQELAMLNAVTEDLR [SCARA5]	3.27 ± 0.27	3.16 ± 0.45		
DVLLLGNDYIVPRHCPELAEMSRV [HNF4A]	2.65 ± 0.2	2.49 ± 0.3		
ALWCSGHLNGHAMCQTKHSPWADG [ADAMTS4]	2.48 ± 0.38	2.27 ± 0.47		
PPFWDEDQHRLYKQIKAGAYDFPS [CAMK2A]	3.4 ± 0.28	3.54 ± 0.29		
FLDIDTSAVEKEPARAPPEPPHNL [SERTAD3]	4.84 ± 0.13	4.98 ± 0.45		
ENEKLHQRVEQLTRDLAGLRQFFK [CEBPD]	3.01 ± 1.3	2.55 ± 0.28		
GTPSLLRGKRGGHATNYRIVAPRS [EMID1]	4.1 ± 0.12	3.88 ± 0.32		
HRNQCQYCRLKKCLKVGMRREAVQ [NR2F2]	2.39 ± 0.47	2.57 ± 0.57		
DQFTQVFLESQGIELNPPEKMALD [EFHC1]	4.662 ± 0.027	4.78 ± 0.24		

Sequence	protein stability index [1]	protein stability index [2]	protein stability index [3]	protein stability index [4]
EATPRSLRASGSLCGPHAKAPYLC	2.77 ± 0.26	2.82 ± 0.23		
KLVKKHAAQRSTETALYRKMLGNP [FKBP8]	2.95 ± 0.47	3.04 ± 0.25		
SRPNGTSAMLLVTLGKVLKVIVVM [MED27]	2.88 ± 0.46	2.93 ± 0.68		
YKKAVGLKLKQEKKEAYLKLKQG [WDR88]			2.81 ± 0.4	3.13 ± 0.3
SFELLVRFFACPSKATFSRNIMNL [KCNA3]	3.16 ± 0.46	2.96 ± 0.25		
CEENEQSLPPPAGLNSSWVELPMN [BNIP3L]	4.65 ± 0.34	4.41 ± 0.25		
KGNTTLQQLDLRWNNVGLLGGRAL [LRRC45]	2.68 ± 0.034	2.73 ± 0.26		
NIMMPMGGMMPPGPGIPPLMPGMP [ZNF207]	2.87 ± 0.29	2.88 ± 0.13		
LAARVIVNHRIYYKGHIPEKLETF [FEM1C]	2.82 ± 0.99	2.47 ± 0.52		
AAAPVAEVPTAAGALTPTPAPTTT [CLPTM1]	5.3 ± 0.34	5.25 ± 0.097		
QRTHTGEKPYKCPECGEIFAHSSN [ZNF263]	3.6 ± 0.37	4.07 ± 0.47		
SEPFLTPYLLGPDKNLTEREVFNE [SLC19A2]	4.8 ± 0.053	4.83 ± 0.062		
KHVEYEVSSQRFKSSVYRRYNDFV [SNX8]	2.35 ± 0.3	2.8 ± 0.39		
AMPPYGQGPPMVPPYQGGPPRPPM [ZNF207]	3.79 ± 0.45	3.92 ± 0.2		
MAREHAFNIGLPDNIVNCNEFLCT [ZNF277]	2.94 ± 0.21	2.92 ± 0.57		
FEVPYYNRGLILYRLGYFDDALED [TTC32]	2.5 ± 0.44	2.23 ± 0.36		
AGPGAAEPLPVERDPAAGAAPFRF [ZNF511]	4.38 ± 0.17	4.64 ± 0.29		
EPPVTMIFMGYQNVEDEAETKKVL [PALM]	4.07 ± 0.37	4.09 ± 0.051		
RMIPGQPPASARRLSVPRDSACDE [IRX6]	5.29 ± 0.24	5.29 ± 0.15		
EEEGFGSSSPVKSPAAPYFLGSSF [WEE1]	3.73 ± 0.18	3.77 ± 0.065		
GSGTIDFEEFLVMMVRQMKEDAKG [TNNC2]	3.25 ± 0.88	3.88 ± 0.8		
KSESSLPHQTSKMENLPGLASGPG	4.87 ± 0.29	4.43 ± 0.33		
YPENDWDTAAPVPQKDLEIFKNF [PRKX]			5.08 ± 0.33	5.33 ± 0.25

Sequence	protein stability index [1]	protein stability index [2]	protein stability index [3]	protein stability index [4]
SQLPQVLHVSLGQKLVAAYVLGLL [MOSPD3]	3.26 ± 0.94	2.75 ± 1.2		
NTRFVVDPSIFTAQPNTMLGRMFG [BTBD10]	2.51 ± 0.52	2.44 ± 0.16		
CHSFISGTAPLNQETAEFFLSLDI [ACSBG2]	3.01 ± 1.4	2.6 ± 1.6		
PFTKKRVGVDRAFPLKPMVHRKSC [ZC2HC1C]	3.4 ± 0.13	3.65 ± 0.1		
SKQLTLEQLRREKIDLENTLEQEQ [CCDC6]	5.43 ± 0.26	5.2 ± 0.11		
YEELRNSERAEVQRLEEQERRHRE [RSPH3]	5.4 ± 0.25	5.38 ± 0.28		
SEALLYALVHDHQAYAHYLLATFP [ANKRD9]	2.7 ± 0.49	2.61 ± 0.53		
PKKGPAPSLSPGSSCVKYLIFLSN [TSPAN10]	2.59 ± 0.64	2.43 ± 0.21		
GFAFITFENPADAKNAAKDMNGKS [RBMY1A1]	3.55 ± 0.46	3.68 ± 0.36		
AARNACRAGTEPSDAIRVVNAVLT [TRIP13]	3 ± 0.45	3.19 ± 0.33		
HSSWTPPNAQYWSQFHSVRPQGPQ [DNAJC4]	3.23 ± 0.053	3.34 ± 0.22		
MCDAFVGTWKLVSSENFDDYMKEV [FABP4]	2.55 ± 0.44	2.42 ± 0.46		
AHEYIFCFVLGFFYPVMLILFLVI [SOAT2]	2.98 ± 0.56	3.03 ± 0.23		
ESDTDIYETVAAATSESTTVEPGK [DRICH1]	5.66 ± 0.14	5.6 ± 0.2		
EVEAKFKRYESHPVCADLQAKILQ [CHCHD3]	3.66 ± 0.21	3.58 ± 0.078		
REEEEKTPPETKPDPPVNFLRQKV [PCMTD2]	5.34 ± 0.26	5.29 ± 0.087		
YVASHKIEKEEQEKKRKEEEERRR [ACBD3]	3.2 ± 1.1	4.37 ± 0.73		
FALQSDLDQPAFQQLVSFSESGSL [ISL2]	2.91 ± 0.37	3.03 ± 0.3		
LGEEWSLHKIYLCQSGYFSSMFSG [GMCL1]	2.72 ± 1.1	3.4 ± 0.97		
SGFWGVARHFNYVGDLMGSLAYCL [DHCR7]	2.11 ± 0.48	2.07 ± 0.11		
VAQFVLTEGNPRWEQTHLTYRIEN [MMP1]	2.35 ± 0.36	2.35 ± 0.43		
CPGLRLPGSLAGRRAGPAIWAQGW [AUH]	2.83 ± 0.15	1.82 ± 0.35		
EQHDLVYGDWTSGENSDGCYEHFA [CLPTM1]	4.53 ± 0.22	4.41 ± 0.36		

Sequence	protein stability index [1]	protein stability index [2]	protein stability index [3]	protein stability index [4]
SAMALVKHSVLLSASRKSAEQLRI [WEE1]	2.06 ± 0.093	2.16 ± 0.13		
VRNLFGLDPSSGAIHVLGPIDFEE [PCDHGC5]	2.19 ± 0.14	2.33 ± 0.14		
GRKDITSILRAPAYPLELQGQPDP [MOSPD3]	4.26 ± 0.15	4.28 ± 0.35		
IAERLGCTLPQLAIAWCLRNEGVS [KCNAB2]	2.88 ± 0.44	2.71 ± 0.66		
LHRESSNFDSIYICPSTFACAQLA [HDAC6]	2.15 ± 0.46	2.11 ± 0.16		
VTYMNMTAYNKGRLQSSFWIVDKQ [PLD5]	2.39 ± 0.6	2.33 ± 0.39		
ARRKLKGAILTTMLATRNFSGGKS [CAMK2A]	3.21 ± 0.37	3.34 ± 0.47		
WAVQGQNVLHGYPKDIYSSFGFPR [MMP1]	2.39 ± 0.18	2.15 ± 0.057		
DTVTIPVPSEEPQESDQTEEHESG [IQUB]	5.54 ± 0.29	5.72 ± 0.14		
ADSSAQAAAQAPENFQEGKDMSES [TAF7L]	5.72 ± 0.14	5.49 ± 0.39		
HRRTVKMRKGNTMQQFLQKALEIL [FAM50A]	3.08 ± 0.36	2.77 ± 0.42		
TLSWYFLLCVNYFFYGETVTDYFF [CDS2]	3.35 ± 0.64	3.48 ± 0.26		
EPDNWMKEVMLFGHGTRKRVPLGR [RSAD1]	3.69 ± 0.29	3.32 ± 0.15		
HTLRASMRELGLLIFFLFIGVILF [KCNA4]	2.86 ± 0.53	2.61 ± 0.49		
HPPPSTPIKLEEGDGCAREYLLP [ADD1]			5.13 ± 0.2	4.81 ± 0.09
DEAKAPHWTSAPLTEASAHSHPPE [MAP2]	5.39 ± 0.16	5.37 ± 0.075		
LESLRTAQKTALLQDGRRKVHYLF [DPCD]	2.19 ± 0.22	2.45 ± 0.37		
VQGLMKEYLLSFPAGKTPVPAGEE [VPS39]	3.83 ± 0.39	3.88 ± 0.093		
VILGVTNPFFAKTLQHWPHIIRIG [DENND6A]	2.94 ± 0.67	2.78 ± 0.46		
PLESAFDHEDFTGSSSLGFTSSPS [FCHO1]	4.81 ± 0.35	5.07 ± 0.15		
